Reference: paper PMC10505172, “Discovery and pharmacophoric characterization of chemokine network inhibitors using phage-display, saturation mutagenesis and computational modelling” (Nature Communications, 2023)

Columns and labels:
CXCL10 = target: T1, CXCL10 (Homo sapiens, UniProt P02778); assay: CXCL10-induced activated T cell (ATC) migration (chemotaxis); format: cell-based; details: HD2, HD2SCR and EVA4 at 20 μM (Fig. 6i), activated T cells, n = 3 biological replicates
T1 construct: purchased Peprotech 300-12
Procedure: For activated-T cell migration assays, 100000 cells/well were added to the top chamber of a 3-µm Transwell insert (3385, Corning) in 50 µL of migration media (HBSS (14025-092, Life Technologies), 0.1% protease free bovine serum albumin (A7030, Sigma), 0.05% DMSO (D4540, Sigma)). The bottom chamber contained 150 µL of migration media with chemokine and peptide added. Cells were migrated at 37 °C in 5% CO2 for 2 h.
Following the migration assay the migration plate was shaken at 850 RPM for 10 min, and media from bottom plate transferred to a round-bottomed 96 well plate (353910, Falcon). Cell counts were determined using an Atune NxT Flow Cytometer Plate Reader with Cytkick autosampler (ThermoFisher), based on cell size parameters FSC-H/SSC-H, and a previously defined gate setting for each cell type (Supplementary Fig. 11). All experiments were performed as three technical and three biological replicates. Statistical significances between control and experimental groups was evaluated using Dunnett’s test[73]. IC50 experiments were performed at the EC80 dose of chemokine. EC80 was calculated by fitting a chemokine dose-response curve with a 3-parameter log-logistic model (fixing the top to 100%) using the function “drm” in R-package drc[74]. IC50 was calculated by fitting an inhibitor response curve with a 4-parameter log-logistic model using the function “drm” in R-package drc[74]. […]

CXCL6 = target: T2, CXCL6 (Homo sapiens, UniProt P80162); assay: CXCL6-induced Jurkat CXCR1 (J:CXCR1) migration (chemotaxis); format: cell-based; details: HD2, HD2SCR and EVA4 at 10 μM, chemokine at EC80, J:CXCR1 cells, n = 3 biological replicates, Dunnett's test
T2 construct: purchased Peprotech 300-41
Procedure: For THP1 migration assays, 300000 cells/well were added to the top chamber of a 5-µm 96-well Transwell insert (3387, Corning) in 50 µL of cell migration media (RPMI-1640 (R0883, Sigma), 0.5% FBS (F9665, Sigma), 4 mM L-Glutamine (G7513, Sigma), 0.05% DMSO (D4540, Sigma)). The bottom chamber contained 150 µL of migration media with chemokine and peptide added. Cells were migrated at 37 °C in 5% CO2 for 4 h.
J:CXCR1 migration assays were performed exactly as for THP1 assays except that a 3-µm Transwell insert (3385, Corning) was used.
Following the migration assay the migration plate was shaken at 850 RPM for 10 min, and media from bottom plate transferred to a round-bottomed 96 well plate (353910, Falcon). Cell counts were determined using an Atune NxT Flow Cytometer Plate Reader with Cytkick autosampler (ThermoFisher), based on cell size parameters FSC-H/SSC-H, and a previously defined gate setting for each cell type (Supplementary Fig. 11). […] Statistical significances between control and experimental groups was evaluated using Dunnett’s test[73]. […] EC80 was calculated by fitting a chemokine dose-response curve with a 3-parameter log-logistic model (fixing the top to 100%) using the function “drm” in R-package drc[74]. IC50 was calculated by fitting an inhibitor response curve with a 4-parameter log-logistic model using the function “drm” in R-package drc[74]. […]

B1: EVA4: parental tick class A evasin, mature peptide residues 24–127 with N-terminal His-tag, expressed in HEK293F cells (protein)
chain: EVPQMTSSSAPDLEEEDDYTAYAPLTCYFTNSTLGLLAPPNCSVLCNSTTTWFNETSPNNASCLLTVDFLTQDAILQENQPYNCSVGHCDNGTCAGPPRHAQCW
modifications: left off: 8xHis, N-terminal, state not stated
notes: parental tick class A evasin, mature peptide residues 24–127 with N-terminal His-tag, expressed in HEK293F cells
- effect on chemokine-induced cell migration (CXCL10): did not inhibit
- effect on chemokine-induced cell migration (CXCL6): did not inhibit
